The record followed here is article PMC6009595.

This data set concerns the target H-NS (Salmonella enterica serovar Typhimurium …, UniProt A0A0F6B244 1-137). Put plainly: fluorescence anisotropy. In general terms: In fluorescence polarisation assays a small probe gives low polarisation when free and higher when bound to something large.

Chain of H-NS (A0A0F6B244 whole entry): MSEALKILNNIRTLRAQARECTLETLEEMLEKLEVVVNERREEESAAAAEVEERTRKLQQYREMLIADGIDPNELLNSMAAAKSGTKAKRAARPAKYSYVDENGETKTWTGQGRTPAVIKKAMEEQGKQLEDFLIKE

B1: 36 bp pagC high-affinity H-NS site (HAhnsBS) (dsDNA)
DNA 1: ATGGGTTTTATAGCGAAATAGACTTTTTTATCGCGT
DNA 2: ACGCGATAAAAAAGTCTATTTCGCTATAAAACCCAT
On to B1, for which the binding result is recorded as “binds”.
